Test results published in patent US20250376501A1 (JINGYUAN BIOSCIENCES SUZHOU, published 2025).
Each block holds one binder with its values, some of them ahead of it.

Key:
[1] = biological target: T1, hTSLP recombinant protein (ACROBiosystems, Cat. No. TSP-H52Ha) (human, UniProt Q969D9 29-159); experiment: cell-based or functional assay
[2] = biological target: T2, hTSLP-mFc recombinant protein (ACROBiosystems, Cat. No. TSP-H5255) (human, UniProt Q969D9 29-159); experiment: ELISA, hTSLP-mFc coated 50 ng/well, anti-His HRP
T2 construct: Bought protein; also called hTSLP-Fc protein; not shown: mouse Fc tag
T2 sequence (Q969D9 29-159 R127A/R130A limits assumed): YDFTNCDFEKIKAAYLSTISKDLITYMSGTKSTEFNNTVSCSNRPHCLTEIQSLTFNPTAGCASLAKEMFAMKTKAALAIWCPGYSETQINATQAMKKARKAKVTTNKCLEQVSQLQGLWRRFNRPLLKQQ
Protocol: hTSLP-mFc recombinant protein (ACROBiosystems, Cat. No. TSP-H5255) was coated onto a plate at 50 ng/well and incubated at 4° C. overnight. […] After washing, mouse anti-His tag horseradish peroxidase-labeled antibody (1:5000) (purchased from Beijing Sino Biological, 105327-MM02T-H) was added, and the mixture was reacted at room temperature for 1 hour. After washing, TMD substrate solution was added, and the absorbance was read at 450 nm. Data processing and graphical analysis were performed using the software Graphpad Prism 6.0.

[3] = biological target: T1, hTSLP recombinant protein …; experiment: competitive ELISA: blocks binding of hIL-7Rα-mFc to hTSLP/TSLPR-Fc complex, anti-mouse Fc HRP
Protocol: TSLPR-Fc fusion protein was coated onto a plate at a concentration of 0.5 μg/mL and a volume of 100 μL per well, and incubated at 4° C. overnight. […] Then, goat anti-mouse Fc tag horseradish peroxidase-labeled antibody (1:5000) was added, and the mixture was reacted at room temperature for 1 hour. Then, TMD substrate solution was added, and the absorbance was read at 450 nm. Data processing and graphical analysis were performed using the software Graphpad Prism 6.0.

[4] = biological target: T1, hTSLP recombinant protein …; experiment: competitive ELISA: blocks binding of hTSLP/hTSLPR-Fc complex to coated mouse IL-7Rα-his, anti-human Fc HRP
Protocol: Then, goat anti-human Fc tag horseradish peroxidase-labeled antibody (1:10000) was added, and the mixture was reacted at room temperature for 1 hour. Then, TMD substrate solution was added, and the absorbance was read at 450 nm. Data processing and graphical analysis were performed using the software Graphpad Prism 6.0.

hTSLP/TSLPR-Fc complex = biological target: T3, hTSLP/TSLPR-Fc complex (human, UniProt Q9HC73 23-231); experiment: ELISA, TSLPR-Fc coated, hTSLP added, hIL-7Rα-mFc titrated, anti-mouse Fc HRP
T3 construct: also called hTSLP/hTSLPR-Fc complex; not shown: His tag of the bought hTSLP; Fc tag of the bought protein (detected with anti-human Fc)
Protocol: TSLPR-Fc recombinant protein (purchased from ACROBiosystems, Cat. No. TSR-H525a) was coated onto a plate at 0.1 μg/well and incubated at 4° C. overnight. Subsequently, the plate was washed and added with 0.1 μg/well of hTSLP, and the mixture was reacted at room temperature for 1 hour. […] After washing, goat anti-mouse Fc tag horseradish peroxidase-labeled antibody (purchased from Abcam, ab97040) was added, and the mixture was reacted at room temperature for 1 hour. After washing, substrate solution was added, and the absorbance was read at 450 nm.

T1 sequence (Q969D9 29-159 R127A/R130A limits assumed): as above

inhibition of hTSLP-induced reporter gene expression in BaF3-hTSLPR-hIL-7R-STAT5-Luc cells, IC50 [1]: 0.348 nM | inhibition of the proliferation-promoting effect of hTSLP on Ba/F3-TSLPR/IL-7Rα cells (CTG), IC50 [1]: 1.55 nM | EC50 [2]: 0.029 mg/L | IC50 [3]: 1.29 nM | IC50 [4]: 1.69 nM
B1: 3H10-his recombinant protein (designed binder)
chain: GSHMDLGKKLLEAAWAGRDDEVRILMANGADVNAGDASGDTPLHLAAFSGHLEIVEVLLKHGADVNAEDLLGMTPLHLAAPFGHLEIVEVLLKHGADVNAAARNNGKTPLHLAAFVGHLEIVEVLLKNGADVNAQDKFGKTAFDISIDNGNEDLAEILQKLNG
notes: Expressed in E. coli Rosetta from pet28b, purified on a nickel column; also called 3H10-his fusion protein; 3H10 recombinant protein; not shown: His tag from vector pet28b

EC50 [2]: 0.803 mg/L
B2: TSLPR-his (Novoprotein Scientific Inc., Cat. No. CW75) (receptor, UniProt Q9HC73 23-231, looked up)
chain: QGGAAEGVQIQIIYFNLETVQVTWNASKYSRTNLTFHYRFNGDEAYDQCTNYLLQEGHTSGCLLDAEQRDDILYFSIRNGTHPVFTASRWMVYYLKPSSPKHVRFSWHQDAVTVTCSDLSYGDLLYEVQYRSPFDTEWQSKQENTCNVTIEGLDAEKCYSFWVRVKAMEDVYGPDTYPSDWSEVTCWQRGEIRDACAETPTPPKPKLSK
notes: Bought protein; not shown: His tag

EC50 (hTSLP/TSLPR-Fc complex): 0.689 mg/L
B3: hIL-7Rα-mFc (ACROBiosystems, Cat. No. ILA-H5258) (Fc fusion, human, UniProt P16871 21-239, looked up)
chain: ESGYAQNGDLEDAELDDYSFSCYSQLEVNGSQHSLTCAFEDPDVNITNLEFEICGALVEVKCLNFRKLQEIYFIETKKFLLIGKSNICVKVGEKSLTCKKIDLTTIVKPEAPFDLSVVYREGANDFVVTFNTSHLQKKYVKVLMHDVAYRQEKDENKWTHVNLSSTKLTLLQRKLQPAAMYEIKVRSIPDHYFKGFWSEWSPSYYFRTPEINNSSGEMD
notes: Bought protein; not shown: mouse Fc tag
